Data as given in US20180127500A1 (ANAPTYSBIO, published 2018).
Blank lines part the entries; values can stand above or below the binder they belong to.

Tests used:
Human TIM-3 = target: T1, Human TIM-3 (human, UniProt Q8TDQ0 22-200, limits assumed); assay: BIACORE (SPR)
T1 construct: The construct used for BIACORE is not described; also called T Cell Immunoglobulin and Mucin Protein 3; HAVCR2
T1 sequence (looked up): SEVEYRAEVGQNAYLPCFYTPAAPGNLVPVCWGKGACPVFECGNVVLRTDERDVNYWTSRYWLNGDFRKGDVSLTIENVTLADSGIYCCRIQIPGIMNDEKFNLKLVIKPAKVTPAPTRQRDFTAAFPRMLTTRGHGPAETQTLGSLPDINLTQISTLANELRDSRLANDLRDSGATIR

Cyno TIM-3 = target: T2, Cyno TIM-3 (cynomolgus monkey, UniProt A0A2K5U3G7 22-294); assay: BIACORE (SPR)
T2 construct: The construct used for BIACORE is not described; also called cynomolgus monkey TIM-3
T2 sequence: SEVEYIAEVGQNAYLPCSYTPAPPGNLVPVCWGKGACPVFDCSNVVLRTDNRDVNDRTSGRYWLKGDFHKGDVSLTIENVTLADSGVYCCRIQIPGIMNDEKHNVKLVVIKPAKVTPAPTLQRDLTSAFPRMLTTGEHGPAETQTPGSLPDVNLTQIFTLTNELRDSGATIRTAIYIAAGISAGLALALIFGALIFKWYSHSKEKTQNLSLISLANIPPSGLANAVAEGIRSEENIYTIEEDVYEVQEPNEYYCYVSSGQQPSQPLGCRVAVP

Kd (Human TIM-3): 0.05 nM
Kd (Cyno TIM-3): 0.19 nM
B1: APE5137 (antibody, V domains shown)
VH: EVQLLESGGGLVQPGGSLRLSCAAASGFTFSSYDMSWVRQAPGKGLDWVSTISGGGTYTYYQDSVKGRFTISRDNSKNTLYLQMNSLRAEDTAVYYCASMDYWGQGTTVTVSS
VL: DIQMTQSPSSLSASVGDRVTITCRASQSIRRYLNWYHQKPGKAPKLLIYGASTLQSGVPSRFSGSGSGTDFTLTISSLQPEDFAVYYCQQSHSAPLTFGGGTKVEIKR
notes: also called Lead Antibody; lead anti-TIM-3 antibody

Kd (Human TIM-3): < 0.05 nM
Kd (Cyno TIM-3): 1.5 nM
B2: APE5121 (antibody, V domains shown)
VH: EVQVLESGGGLVQPGGSLRLYCVASGFTFSGSYAMSWVRQAPGKGLEWVSAISGSGGSTYYADSVKGRFTISRDNSKNTLYLQMNSLRAEDTAVYYCAKKYYVGPADYWGQGTLVTVSS
VL: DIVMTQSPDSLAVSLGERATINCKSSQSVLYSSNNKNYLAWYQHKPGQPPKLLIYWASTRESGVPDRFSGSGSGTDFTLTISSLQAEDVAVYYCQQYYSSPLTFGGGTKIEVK
notes: also called Back-Up Antibody
